Measurements reported in paper PMC5838229.

Biological target: Flag-DNAJC5 (secreted) (UniProt Q9H3Z4)
Test: co-IP; conditioned medium of cells expressing Flag-DNAJC5 and HA-GFP1-10; Flag beads against control Sepharose beads; precipitated and unbound fractions analysed by immunoblotting

Sequence of UniProt Q9H3Z4 (Q9H3Z4 whole entry): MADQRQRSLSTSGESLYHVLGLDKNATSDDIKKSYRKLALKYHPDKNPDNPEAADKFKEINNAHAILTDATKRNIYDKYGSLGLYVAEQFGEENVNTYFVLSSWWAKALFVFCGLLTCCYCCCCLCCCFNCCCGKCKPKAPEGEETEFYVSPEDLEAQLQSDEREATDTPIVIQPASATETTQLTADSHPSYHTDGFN

For “HA-GFP1-10 (secreted) (domain or fragment)”, the percent co-depleted with Flag-DNAJC5 was > 60%.
